Data taken from US20160311886A1, “Constructs Binding to Phosphatidylserine and Their Use in Disease Treatment and Imaging” (Board of Regents, The University of Texas System, priority 2005, published 2016).

B1: 3G4: Mouse IgG3 kappa monoclonal antibody to PS and anionic phospholipids; binding mediated by β2-glycoprotein I (antibody, listed as Mus musculus)
VH: MGWTWIFILILSVTTGVHSEVQLQQSGPELEKPGASVKLSCKASGYSFTGYNMNWVKQSHGKSLEWIGHIDPYYGDTSYNQKFRGKATLTVDKSSSTAYMQLKSLTSEDSAVYYCVKGGYYGHWYFDVWGAGTTVTVSSATTTAPSVYPLVP
VL: MDMRAPAQILGFLLLLFPGTRCDIQMTQSPSSLSASLGERVSLTCRASQDIGSSLNWLQQGPDGTIKRLIYATSSLDSGVPKRFSGSRSGSDYSLTISSLESEDFVDYYCLQYVSSPPTFGAGTKLELKRADAAPTVFIFGRIP

What was measured:
[1] = tested on: tumor and normal vascular endothelium; experiment: Biodistribution of 9D2 antibody and annexin V in tumor bearing mice; type: in vivo, mouse
Procedure: To detect externally-positioned phospholipids, methods were performed essentially as previously described (Example V; Ran et al., 1998). Tumor-bearing SCID mice were injected intravenously with either 50 μg of 9D2 or biotinylated 9D2 antibody or 100 μg of biotinylated annexin V. Sixty min later mice were sacrificed and their blood circulation was exsanguinated and perfused with heparinized saline as previously described (Burrows et al., 1992). All major organs and tumor were harvested and snap-frozen for preparation of cryosections.
Sections were blocked with PBS containing 10% serum. To prevent loss of phospholipids during slide processing, detergents and organic solvents were omitted from blocking and washing buffers. Rat IgM was detected using goat anti rat IgM specific)-HRP conjugate followed by development with carbazole or DAB (Fries et al., 1993). Biotinylated reagents were detected by streptavidin conjugated to HRP.
Tumor sections derived from mice injected with saline or rat IgM of irrelevant specificity served as negative controls. […] No signal was detected under these conditions. The number of positive vessels per high power field was determined at magnification of ×100. At least 10 fields per section were examined and the average percentage of positive vessels was calculated. […]
Structures with localized 9D2 antibody or annexin V were identified as blood vessels by morphological appearance on DAB-stained sections and by co-incident staining with the pan-endothelial cell marker, MECA 32 on serial sections of frozen tissues. Quantification on DAB-stained sections was done by counting vessels stained by MECA 32, 9D2 or annexin V in serial sections of a tumor. […] At least 10 random fields per section (0.317 mm^2/field) were scored in blinded fashion by two independent observers. The mean numbers and standard errors of vessels stained by 9D2, annexin V or MECA 32 were calculated. The mean number of 9D2 or annexin V-positive vessels determined in each tumor type group was compared to the mean number of MECA 32-positive vessels in the same tumor group. […]

MDA-MB-231 tumor vessels = experiment: Double staining of orthotopic MDA-MB-231 tumors; type: in vivo, mouse; details: biotinylated reagent i.v., one hour
Procedure: In further studies, mice bearing MDA-MB-231 tumors (0.3-0.7 cm^3 in volume) were injected intravenously with 50 μg of biotinylated 9D2, control IgM or annexin V (six mice per group). Biotinylated reagents were first incubated with streptavidin-Cy3 conjugate, washed in PBS, then incubated with MECA 32 antibody followed by FITC-tagged anti-rat IgG secondary antibody. Single images, taken with appropriate filters for Cy3 (red) and FITC (green) fluorescence respectively, were captured by digital camera and transferred to a computer. […] The same method was used to analyze tumors from mice injected with control rat IgM or saline. The percentage of vessels with localized 9D2 or annexin V was calculated as follows: mean number of yellow vessels per field divided by mean number of green (total) vessels multiplied by 100.
Double staining studies were also performed in which mice bearing orthotopic MDA-MB-231 breast tumors were injected intravenously with biotinylated 9D2 antibody, biotinylated control IgM or biotinylated annexin V. One hour later, the mice were exsanguinated, and their tumors were removed and frozen sections were cut. The tumor sections were then stained with Cy3-conjugated streptavidin to detect the biotinylated proteins and with FITC-conjugated MECA32 to detect vascular endothelium. […]

[2] = tested on: orthotopic MDA-MB-435 breast tumors; experiment: 3G4 localization to tumor blood vessels in vivo; parameters: species or system mouse
From the text: Frozen sections of tumor and normal tissues were stained for the presence of mouse immunoglobulin. SCID mice that had been confirmed as having no detectable circulatory immunoglobulin were used to avoid background staining. In these studies, sections were counterstained with anti-mouse CD31 to detect vascular endothelium and the images were merged. […] Coincident staining appeared yellow, unless dominated by a particularly intense green or red fluorescence in that region. The antigen specificity of vessel localization was confirmed by the lack of endothelial staining in tumors from mice injected with the isotype-matched control antibodies, BBG3.

Meth A fibrosarcoma = experiment: 3G4 tumor treatment; type: in vivo, mouse
Procedure: Treatment was repeated 3 times a week. Animals were monitored twice a week for tumor measurements.
Groups of 8-10 female SCID mice were injected subcutaneously with 2×10^7 L540 cells or orthotopically with 1×10^7 MDA-MB-435 or MDA-MB-231 cells. BALB/c mice were injected subcutaneously with 1×10^6 Meth A cells. Tumors were allowed to grow to an average diameter of 0.8-1 cm (L540), 0.6-0.7 cm (MDA-MB-435), 0.5-0.7 cm (MDA-MB-231), or <0.1 cm (Meth A). […] Animals were monitored three times a week for tumor size and body weight. Mice were sacrificed when tumors in control mice reached a diameter of 1.5-2 cm.

bEnd.3 cells = experiment: Growth of bEnd.3 cells in vitro; type: cell-based, mouse; details: 20 μg to 40 μg total IgG per well; 48 and 96 hours
Procedure: 20% DMEM alone (control) or 20% DMEM containing the antibodies (20 μg to 40 μg total IgG per well) was added 4 hours after seeding. Each clone was tested on two separate plates in triplicates. Cells were detached 48 and 96 hours later, the cell count was determined in each well and the average cell number per treatment was calculated.

tumor cells = experiment: Direct inhibitory effects of 3G4 on tumor cells in vitro; type: cell-based
dendritic cells = experiment: DC uptake of apoptotic tumor cells; type: cell-based; details: Fc(γ)R mediated internalization
From the text: The inventors therefore envision using the anti-PS antibodies of the present invention to enhance both […] and cellular anti-tumor immunity, and boost the efficacy of ATC based DC tumor vaccines.

[3] = tested on: Tissue Factor (TF)-induced coagulation
human CMV AD169 = experiment: CMV-GFP spread by fluorescent microscopy
RSV long strain = experiment: RSV plaque assay after antibody treatment; details: MOI of 1

| Molecule | PS-positive vessels of MECA 32-stained vessels per field ([1]; B16 tumor) | PS-positive vessels of MECA 32-stained vessels per field ([1]; L540cy tumor) | PS-positive vessels of MECA 32-stained vessels per field ([1]; MDA-MB-231 tumor, one hour after i.v. injection) | MECA 32 positive vessels that bound the reagent (MDA-MB-231 tumor vessels) | tumor blood vessels with localized antibody ([2]; after i.p. or i.v. injection) | time to maximal localization to tumor vessels ([2]; i.p. injection) | time to maximal staining of tumor vessels ([2]; i.v. injection) | mice with long-term complete remissions (Meth A fibrosarcoma; Meth A-bearing mice) | retardation of tumor growth (Meth A fibrosarcoma; syngeneic Meth A fibrosarcoma) | inhibition of growth of bEnd.3 cells (bEnd.3 cells) | direct inhibitory effect on tumor cells (tumor cells) | enhancement of DC uptake of apoptotic tumor cells (dendritic cells) | inhibition of TF-induced coagulation [3] | cell-to-cell spread (human CMV AD169; 100 μg/ml and 50 μg/ml) | entry of the virus into the cells (human CMV AD169; day 3, 50 and 100 μg/ml) | viral spread in monolayer (human CMV AD169; day 9, 100 μg/ml and 50 μg/ml, control wells approximately 80% infected) | decrease in viral titer (RSV long strain) |
| --- | --- | --- | --- | --- | --- | --- | --- | --- | --- | --- | --- | --- | --- | --- | --- | --- | --- |
| Annexin V: High affinity PS binding ligand; natural ligand binding anionic phospholipids and PE | 21.3 ± 6.6% | 16.7 ± 3.9% | 45.3 ± 5.6% | About 40% | – | – | – | – | – | – | – | – | – | – | – | – | – |
| B1 | – | – | – | – | 40±10% | ≤ 6 h | ≤ 1 h | 50% | 90% | particularly effective | No direct inhibitory effect on tumor cells was observed | 300% | weak inhibition | complete inhibition of cell-to-cell spread | does not appear to significantly inhibit the entry of the virus | restricted to the original singly-infected cell | 2 log10 |
